According to paper PMC6356862, “A polyextremophilic alcohol dehydrogenase from the Atlantis II Deep Red Sea brine pool” (FEBS Open Bio, 2018):

Legend:
[1] = target: Alcohol dehydrogenase/A1a (ADH/A1a) from an uncultured MSBL1 archaeon of the Atlantis II Deep Red Sea brine pool (uncultured MSBL1 (Mediterranean Sea Brine Lake 1) archaeon); experiment: native gel or EMSA; Coomassie-stained native PAGE of purified ADH/A1a (Fig. S4); conditions not given
[2] = substrate: CCO; experiment: purified protein; settings: standard oxidation conditions: 3 M KCl, 50 mM glycine/NaOH pH 10.0, 60 °C, 10 mM NAD(P)+, 0.4 mM zinc sulfate, cofactor (NAD+ or NADP+) not specified
[3] = substrate: OC/C=C/c1ccccc1; experiment: purified protein; assay type: biochemical, candidate division MSBL1 archaeon SCGC-AAA261F19; settings: standard oxidation conditions: 3 M KCl, 50 mM glycine/NaOH pH 10.0, 60 °C, 10 mM NAD(P)+, 0.4 mM zinc sulfate, cofactor (NAD+ or NADP+) not specified
[4] = substrate: CC(C)=CCC/C(C)=C/CO; experiment: purified protein; assay type: biochemical, candidate division MSBL1 archaeon SCGC-AAA261F19; settings: standard oxidation conditions: 3 M KCl, 50 mM glycine/NaOH pH 10.0, 60 °C, 10 mM NAD(P)+, 0.4 mM zinc sulfate, cofactor (NAD+ or NADP+) not specified

**Q.** “Alcohol dehydrogenase/A1a (ADH/A1a) from an uncultured MSBL1 archaeon of the Atlantis II Deep Red Sea brine pool (enzyme)” was tested. Which stoichiometry N [1] did it give?
**A.** 4

B1: ADH/A1a (candidate division MSBL1 archaeon SCGC-AAA261F19) (protein)
chain: MKAMQLKEPKPVEQAPLEMVELKEPRPGPKEVKIDVQACGVCHTDLHTVEGELSLPKLPIVPGHEVVGVVEESGDEAEHFEVGDRVGVTWLYSSCGECKFCRRGQENLCEDPMFTGLHADGGYEESMVAKEDFVYPIPKNISDEDAAPLLCAGVIGYRSLRLSEVKPGQRLGLFGFGASAHIVIQLATDMGCEVYVFTRSEEHRRLARELGSAWEGSAKDDPPHRIDSGITFAPVGWIVKEALRDLEKGGTLAINAIHMTPIPELDYDLIYHEKKLRSVANVTREDAEGFLKIAGDIPVQTEVETFPLEEANRALRLLKDSKINGAGVLKVS
notes: N-terminal 20-residue nonsense region of annotated adh/a1 deleted; N-terminal His6-tag; codon-optimized, expressed in Haloferax volcanii H1895 (pTA963); zinc added
**Q.** Which Km [2] does the source give for B1 here?
**A.** 94430 ± 8400 µM

**Q.** And the Vmax [2]?
**A.** 0.142 µmol/min/mg

**Q.** And the kcat [2]?
**A.** 0.089 s⁻¹

**Q.** What about the kcat/Km [2] of the same molecule?
**A.** 0.94 M⁻¹ s⁻¹

**Q.** What about the Km [3] of the same molecule?
**A.** 470 ± 90 µM

**Q.** What about the Vmax [3] of the same molecule?
**A.** 0.237 µmol/min/mg

**Q.** What about the kcat [3] of the same molecule?
**A.** 0.144 ± 0.009 s⁻¹

**Q.** What about the kcat/Km [3] of the same molecule?
**A.** 310 ± 10 M⁻¹ s⁻¹

**Q.** And the Km [4]?
**A.** 270 ± 40 µM

**Q.** And the Vmax [4]?
**A.** 0.131 µmol/min/mg

**Q.** What about the kcat [4] of the same molecule?
**A.** 0.082 ± 0.003 s⁻¹

**Q.** And the kcat/Km [4]?
**A.** 290 ± 18 M⁻¹ s⁻¹
